Assay results as given in patent publication US20260166158A1, “HSP90-BINDING CONJUGATES AND FORMULATIONS THEREOF” (Fusion Pharmaceuticals Inc., priority 2019, published 2026).

Test system: NCI-H460 tumor-bearing mice (lung cancer)
Test: Biodistribution: lutetium accumulation in tumor, plasma and healthy tissues by ICP-MS
Assay type: in vivo
Conditions: 24 h; for Kidney uptake, % ID/g 24 h / Liver uptake, % ID/g 24 h / Plasma, % ID/g 24 h / Tumor uptake, % ID/g, 24 h: second table
Method: Lutetium accumulation was measured in tumor, plasma and healthy tissues of NCI-H460 tumor-bearing mice (lung cancer). NCJ-H460 tumor bearing mice were dosed with 0.5 mg/kg of lutetium conjugates. At the time points indicated, mice were sacrificed and tumor, liver, kidneys and plasma were taken. All tissues were analyzed for lutetium content by ICP-MS, and lutetium uptake in % ID/g determined by the following equation: […]
Biodistribution at 24 h and Tumor/Kidney ratio (T/K), Tumor/Liver ratio (T/L), Tumor/Plasma ratio (T/P) are give in the table below.

For `CCNC(=O)c1nnc(-c2cc(C(C)C)c(O)cc2O)n1-c1ccc(C2CCN(C(=O)CCOCCOCCOCCOCCOCCOCCOCCOCCOCCOCCOCCOCCNC(=O)CN3CCN4CCN5CCN(CC3)CC(=O)[O][Lu]([O]C(=O)C4)[O]C(=O)C5)CC2)cc1` [CMP33], the “T/K (Tumor/Kidney ratio)” value was 2.05, the “T/L (Tumor/Liver ratio)” value was 3.64 and the “T/P (Tumor/Plasma ratio)” value was 5.11. The “Kidney uptake, % ID/g 24 h” value was 1.62 % ID/g, the “Liver uptake, % ID/g 24 h” value was 0.91 % ID/g and the “Plasma, % ID/g 24 h” value was 0.65 % ID/g. The “Tumor uptake, % ID/g, 24 h” value was 3.32 % ID/g.
In the case of `CCNC(=O)c1nnc(-c2cc(C(C)C)c(O)cc2O)n1-c1ccc(OC2CCN(C(=O)CCOCCOCCOCCOCCNC(=O)CN3CCN4CCN5CCN(CC3)CC(=O)[O][Lu]([O]C(=O)C4)[O]C(=O)C5)CC2)cc1` [CMP39], the “T/K (Tumor/Kidney ratio)” value is reported as 3.63, the “T/L (Tumor/Liver ratio)” value is reported as 3.67 and the “T/P (Tumor/Plasma ratio)” value is reported as 4.25. The “Kidney uptake, % ID/g 24 h” value was 0.48 % ID/g, the “Liver uptake, % ID/g 24 h” value was 0.47 % ID/g and the “Plasma, % ID/g 24 h” value was 0.41 % ID/g. The “Tumor uptake, % ID/g, 24 h” value was 1.74 % ID/g.
With `CCNC(=O)c1nnc(-c2cc(C(C)C)c(O)cc2O)n1-c1ccc(OC2CCN(C(=O)CCOCCOCCOCCOCCOCCOCCOCCOCCOCCOCCOCCOCCNC(=O)[C@H](CCCCNC(=O)CCCc3ccc(I)cc3)NC(=O)CN3CCN4CCN5CCN(CC3)CC(=O)[O][Lu]([O]C(=O)C4)[O]C(=O)C5)CC2)cc1` [CMP5] the “T/K (Tumor/Kidney ratio)” value was 3.05, the “T/L (Tumor/Liver ratio)” value was 3.17 and the “T/P (Tumor/Plasma ratio)” value was 1.42. The “Kidney uptake, % ID/g 24 h” value was 3.95 % ID/g, the “Liver uptake, % ID/g 24 h” value was 3.80 % ID/g and the “Plasma, % ID/g 24 h” value was 8.48 % ID/g. The “Tumor uptake, % ID/g, 24 h” value was 12.05 % ID/g.
`CCNC(=O)c1nnc(-c2cc(C(C)C)c(O)cc2O)n1-c1ccc(OC2CCN(C(=O)CCOCCOCCOCCOCCOCCOCCOCCOCCOCCOCCOCCOCCNC(=O)CN3CCN4CCN5CCN(CC3)CC(=O)[O][Lu]([O]C(=O)C4)[O]C(=O)C5)CC2)cc1` [CMP41] was tested, and the “T/K (Tumor/Kidney ratio)” value was 5.10, the “T/L (Tumor/Liver ratio)” value was 6.34 and the “T/P (Tumor/Plasma ratio)” value was 8.37. The “Kidney uptake, % ID/g 24 h” value was 0.86 % ID/g, the “Liver uptake, % ID/g 24 h” value was 0.69 % ID/g and the “Plasma, % ID/g 24 h” value was 0.52 % ID/g. For the same compound, the “Tumor uptake, % ID/g, 24 h” value was 4.39 % ID/g.
In the case of `CCNC(=O)c1nnc(-c2cc(C(C)C)c(O)cc2O)n1-c1ccc(CC2CCN(C(=O)CCOCCOCCOCCOCCNC(=O)[C@H](CCCCNC(=O)CCCc3ccc(I)cc3)NC(=O)CN(CC)CCN3CCN4CCN(C)CC(=O)[O][Lu]([O]C(=O)C4)[O]C(=O)C3)CC2)cc1` [CMP4], the “T/K (Tumor/Kidney ratio)” value is reported as 2.53, the “T/L (Tumor/Liver ratio)” value is reported as 3.55 and the “T/P (Tumor/Plasma ratio)” value is reported as 0.87. The “Kidney uptake, % ID/g 24 h” value was 3.24 % ID/g, the “Liver uptake, % ID/g 24 h” value was 2.31 % ID/g and the “Plasma, % ID/g 24 h” value was 9.48 % ID/g. For the same compound, the “Tumor uptake, % ID/g, 24 h” value was 8.21 % ID/g.
For `CCNC(=O)c1nnc(-c2cc(C(C)C)c(O)cc2O)n1-c1ccc(CC2CCN(C(=O)C[C@H](NC(=O)CC[C@H](C(=O)O)N3CCN4CCN5CCN(CC3)CC(=O)[O][Lu]([O]C(=O)C5)[O]C(=O)C4)C(=O)N[C@H](C)C(=O)N3CCC(Cc4ccc(-n5c(C(=O)NCC)nnc5-c5cc(C(C)C)c(O)cc5O)cc4)CC3)CC2)cc1` [CMP28], the “T/K (Tumor/Kidney ratio)” value was 0.90, the “T/L (Tumor/Liver ratio)” value was 0.79 and the “T/P (Tumor/Plasma ratio)” value was 1.13. For the same compound, the “Kidney uptake, % ID/g 24 h” value was 8.90 % ID/g, the “Liver uptake, % ID/g 24 h” value was 10.10 % ID/g and the “Plasma, % ID/g 24 h” value was 7.11 % ID/g. The “Tumor uptake, % ID/g, 24 h” value was 8.01 % ID/g.
`CC(C)c1cc(-c2nnc(O)n2-c2ccc(OC3CCN(C(=O)CCOCCOCCOCCOCCNC(=O)CN4CCN5CCN6CCN(CC4)CC(=O)[O][Lu]([O]C(=O)C5)[O]C(=O)C6)CC3)cc2)c(O)cc1O` [CMP40] was tested, and the “T/K (Tumor/Kidney ratio)” value was 5.08, the “T/L (Tumor/Liver ratio)” value was 62.28 and the “T/P (Tumor/Plasma ratio)” value was 29.23. The “Kidney uptake, % ID/g 24 h” value was 0.14 % ID/g, the “Liver uptake, % ID/g 24 h” value was 0.01 % ID/g and the “Plasma, % ID/g 24 h” value was 0.02 % ID/g. The “Tumor uptake, % ID/g, 24 h” value was 0.71 % ID/g.
`CCNC(=O)c1nnc(-c2cc(C(C)C)c(O)cc2O)n1-c1ccc(CC2CCN(C(=O)CCOCC(COCCC(=O)N3CCC(Cc4ccc(-n5c(C(=O)NCC)nnc5-c5cc(C(C)C)c(O)cc5O)cc4)CC3)NC(=O)CC[C@H](C(=O)O)N3CCN4CCN5CCN(CC3)CC(=O)[O][Lu]([O]C(=O)C5)[O]C(=O)C4)CC2)cc1` [CMP8] was tested, and the “T/K (Tumor/Kidney ratio)” value was 2.01, the “T/L (Tumor/Liver ratio)” value was 1.67 and the “T/P (Tumor/Plasma ratio)” value was 4.01. For the same compound, the “Kidney uptake, % ID/g 24 h” value was 2.91 % ID/g, the “Liver uptake, % ID/g 24 h” value was 3.50 % ID/g and the “Plasma, % ID/g 24 h” value was 1.46 % ID/g. For the same compound, the “Tumor uptake, % ID/g, 24 h” value was 5.86 % ID/g.
In the case of `CCNC(=O)c1nnc(-c2cc(C(C)C)c(O)cc2O)n1-c1ccc(C2CCN(C(=O)CCOCCOCCOCCOCCNC(=O)CN3CCN4CCN5CCN(CC3)CC(=O)[O][Lu]([O]C(=O)C4)[O]C(=O)C5)CC2)cc1` [CMP30], the “T/K (Tumor/Kidney ratio)” value is reported as 2.57, the “T/L (Tumor/Liver ratio)” value is reported as 0.62 and the “T/P (Tumor/Plasma ratio)” value is reported as 2.75. The “Kidney uptake, % ID/g 24 h” value was 0.76 % ID/g, the “Liver uptake, % ID/g 24 h” value was 3.16 % ID/g and the “Plasma, % ID/g 24 h” value was 0.71 % ID/g. For the same compound, the “Tumor uptake, % ID/g, 24 h” value was 1.95 % ID/g.
In the case of `CCNC(=O)c1nnc(-c2cc(C(C)C)c(O)cc2O)n1-c1ccc(CC2CCN(C(=O)CCOCCOCCOCCOCCOCCOCCOCCOCCOCCOCCOCCOCCNC(=O)[C@H](CCCCNC(=O)CCCc3ccc(I)cc3)NC(=O)CN3CCN4CCN5CCN(CC3)CC(=O)[O][Lu]([O]C(=O)C4)[O]C(=O)C5)CC2)cc1` [CMP3], the “T/K (Tumor/Kidney ratio)” value is reported as 3.38, the “T/L (Tumor/Liver ratio)” value is reported as 2.39 and the “T/P (Tumor/Plasma ratio)” value is reported as 0.84. For the same compound, the “Kidney uptake, % ID/g 24 h” value was 5.13 % ID/g, the “Liver uptake, % ID/g 24 h” value was 7.26 % ID/g and the “Plasma, % ID/g 24 h” value was 20.57 % ID/g. The “Tumor uptake, % ID/g, 24 h” value was 17.36 % ID/g.
`CCNC(=O)c1nnc(-c2cc(C(C)C)c(O)cc2O)n1-c1ccc(CC2CCN(C(=O)CCC(=O)N[C@@H](CCCCNC(=O)CN3CCN4CCN5CCN(CC3)CC(=O)[O][Lu]([O]C(=O)C4)[O]C(=O)C5)C(=O)N3CCC(Cc4ccc(-n5c(C(=O)NCC)nnc5-c5cc(C(C)C)c(O)cc5O)cc4)CC3)CC2)cc1` [CMP24] was tested, and the “T/K (Tumor/Kidney ratio)” value was 2.58, the “T/L (Tumor/Liver ratio)” value was 1.07 and the “T/P (Tumor/Plasma ratio)” value was 0.89. The “Kidney uptake, % ID/g 24 h” value was 4.81 % ID/g, the “Liver uptake, % ID/g 24 h” value was 11.53 % ID/g and the “Plasma, % ID/g 24 h” value was 13.96 % ID/g. The “Tumor uptake, % ID/g, 24 h” value was 12.39 % ID/g.
`CCNC(=O)c1nnc(-c2cc(C(C)C)c(O)cc2O)n1-c1ccc(CC2CCN(C(=O)CCOCCOCCOCCOCCOCCOCCOCCOCCOCCOCCOCCOCCNC(=O)CN3CCN4CCN5CCN(CC3)CC(=O)[O][Lu]([O]C(=O)C4)[O]C(=O)C5)CC2)cc1` [CMP34] was tested, and the “T/K (Tumor/Kidney ratio)” value was 3.96, the “T/L (Tumor/Liver ratio)” value was 3.06 and the “T/P (Tumor/Plasma ratio)” value was 5.54. For the same compound, the “Kidney uptake, % ID/g 24 h” value was 1.12 % ID/g, the “Liver uptake, % ID/g 24 h” value was 1.45 % ID/g and the “Plasma, % ID/g 24 h” value was 0.80 % ID/g. For the same compound, the “Tumor uptake, % ID/g, 24 h” value was 4.43 % ID/g.
With `CCNC(=O)c1nnc(-c2cc(C(C)C)c(O)cc2O)n1-c1ccc(OC2CCN(C(=O)CCNC(=O)[C@@H](CCC(=O)N3CCC(Oc4ccc(-n5c(C(=O)NCC)nnc5-c5cc(C(C)C)c(O)cc5O)cc4)CC3)NC(=O)CCOCCOCCOCCOCCNC(=O)CN3CCN4CCN5CCN(CC3)CC(=O)[O][Lu]([O]C(=O)C4)[O]C(=O)C5)CC2)cc1` [CMP35] the “T/K (Tumor/Kidney ratio)” value was 0.74, the “T/L (Tumor/Liver ratio)” value was 0.50 and the “T/P (Tumor/Plasma ratio)” value was 3.97. The “Kidney uptake, % ID/g 24 h” value was 11.87 % ID/g, the “Liver uptake, % ID/g 24 h” value was 17.67 % ID/g and the “Plasma, % ID/g 24 h” value was 2.212 % ID/g. For the same compound, the “Tumor uptake, % ID/g, 24 h” value was 8.776 % ID/g.
With `CCNC(=O)c1nnc(-c2cc(C(C)C)c(O)cc2O)n1-c1ccc(C2CN(C(=O)CCOCCOCCOCCOCCNC(=O)CN3CCN4CCN5CCN(CC3)CC(=O)[O][Lu]([O]C(=O)C4)[O]C(=O)C5)C2)cc1` [CMP29] the “T/K (Tumor/Kidney ratio)” value was 2.19, the “T/L (Tumor/Liver ratio)” value was 2.23 and the “T/P (Tumor/Plasma ratio)” value was 4.08. For the same compound, the “Kidney uptake, % ID/g 24 h” value was 1.12 % ID/g, the “Liver uptake, % ID/g 24 h” value was 1.10 % ID/g and the “Plasma, % ID/g 24 h” value was 0.60 % ID/g. The “Tumor uptake, % ID/g, 24 h” value was 2.45 % ID/g.
`CCNC(=O)c1nnc(-c2cc(C(C)C)c(O)cc2O)n1-c1ccc(OC2CCN(C(=O)CCNC(=O)[C@@H](CCC(=O)N3CCC(Oc4ccc(-n5c(C(=O)NCC)nnc5-c5cc(C(C)C)c(O)cc5O)cc4)CC3)NC(=O)CCOCCOCCOCCOCCOCCOCCOCCOCCOCCOCCOCCOCCNC(=O)CN3CCN4CCN5CCN(CC3)CC(=O)[O][Lu]([O]C(=O)C4)[O]C(=O)C5)CC2)cc1` [CMP36] was tested, and the “T/K (Tumor/Kidney ratio)” value was 0.99, the “T/L (Tumor/Liver ratio)” value was 0.41 and the “T/P (Tumor/Plasma ratio)” value was 7.34. The “Kidney uptake, % ID/g 24 h” value was 3.36 % ID/g, the “Liver uptake, % ID/g 24 h” value was 8.16 % ID/g and the “Plasma, % ID/g 24 h” value was 0.45 % ID/g. The “Tumor uptake, % ID/g, 24 h” value was 3.32 % ID/g.
`CCNC(=O)c1nnc(-c2cc(C(C)C)c(O)cc2O)n1-c1ccc(CC2CCN(C(=O)C[C@H](NC(=O)CN3CCN4CCN5CCN(CC3)CC(=O)[O][Lu]([O]C(=O)C4)[O]C(=O)C5)C(=O)N[C@H](C)C(=O)N3CCC(Cc4ccc(-n5c(C(=O)NCC)nnc5-c5cc(C(C)C)c(O)cc5O)cc4)CC3)CC2)cc1` [CMP27] was tested, and the “T/K (Tumor/Kidney ratio)” value was 1.13, the “T/L (Tumor/Liver ratio)” value was 0.50 and the “T/P (Tumor/Plasma ratio)” value was 1.53. For the same compound, the “Kidney uptake, % ID/g 24 h” value was 6.66 % ID/g, the “Liver uptake, % ID/g 24 h” value was 14.98 % ID/g and the “Plasma, % ID/g 24 h” value was 4.89 % ID/g. The “Tumor uptake, % ID/g, 24 h” value was 7.50 % ID/g.
